Experimental data from patent US20180282402A1.
Positions count from the first letter of the chain named.

B1: KL31-241 (antibody, V domains shown)
VH: QVQLVQSGAEVKKPGASVKVSCKASGYTFTDYCIGWIRQAPGQGLEWMGDICPGDAYTNDNEKFKDRATMTADTSTSTAYMELSSLRSEDTAVYYCARGEEQLGLRNAMDYWGQGTSVTVSS
VL: DIVMTQSPDSLAVSLGERATINCQSQSVSTSTYNYMHWYQQKPGQPPKLLIKYASNLESGVPDRFSGSGSGTDFTLTISSLQAEDVATYYCQHSWEIPWTFGGGTKLEIK
B2: KL31-532 (antibody, V domains shown)
VH: B1 VH with A56T, S117L
VL: B1 VL with Q92G, W95Y, L107V
B3: AB04-439 (antibody, V domains shown)
VH: QVQLVESGGGLVKPGGSLRLSCAASGFTFSDYYMTWIRQAPGKGLEWVSYISGSFRYTNYADSVKGRFTISRDNAKNSLYLQMNSLRDEDTAVYFCARYVYQVVAIGDLWGQGTLVTVSS
VL: DIQMTQSPSSVSASVGDRVTITCRASQGISSWLAWYQQKPGRAPKLLIFAASSLQSGVPSRFSGSGSGTHFTLTISSLQPEDFATYYCQQAESFPYTFGQGTKLEIK
B4: AB13-112 (IgG4 kappa) (antibody, V domains shown)
VH: QVQLVESGGGLVKPGGSLRLSCAASGFTFSDYYMSWIRQAPGKGLEWVSYISDKSRYTKYTDKVRGRFTISRDNAKNSLYLQMNSLRAEDTAVYYCARYLYQVIAIADAWGQGTLVTVSS
VL: B3 VL with Y36F, R42K, A50V, S53N, Q55E, H70D
B5: AB13-112 (IgG1m(za) kappa) (antibody, V domains shown)
VH: B4 VH
VL: B3 VL with Y36F, R42K, A50V, S53N, Q55E, H70D
B6: AB13-433 (antibody, V domains shown)
VH: B4 VH with K54S, R56T, K59N, K63S, I106V, A109S
VL: B3 VL with Y36F, R42K, F49Y, A50V, S53N, Q55E, H70D, E92N
B7: AB13-288 (IgG1m(zf) kappa) (antibody, V domains shown)
VH: B4 VH
VL: B3 VL with Y36F, R42K, A50V, S53N, Q55E, H70D
B8: AB13-288 (IgG4-2 kappa) (antibody, V domains shown)
VH: B4 VH
VL: B3 VL with Y36F, R42K, A50V, S53N, Q55E, H70D

Biological target: Cyno HARS (cynomolgus monkey (Macaca fascicularis))
Experiment: SPR (ProteOn); HRS protein immobilized, antibody as analyte

Binder | Kd
B1 | 1.2 nM
B2 | 0.056 nM
B3 | 0.075 nM
B4 | < 0.001 nM
B5 | < 0.001 nM
B6 | 0.24 nM
B7 | 0.002 nM
B8 | 0.028 nM
